{"source": "patent US20240391979A1", "about": "(ACHELOIS BIOPHARMA, published 2024)", "key": {"[1]": {"target": "Small Hepatitis B surface Antigen (S-HBsAg), HBV subtype not stated (Hepatitis B virus)", "test": "cell-based or functional assay"}, "[2]": {"target": "Small Hepatitis B surface Antigen (S-HBsAg), HBV subtype ayw (Hepatitis B virus, subtype ayw, UniProt P03138 1-226)", "sequence (P03138 164-389)": "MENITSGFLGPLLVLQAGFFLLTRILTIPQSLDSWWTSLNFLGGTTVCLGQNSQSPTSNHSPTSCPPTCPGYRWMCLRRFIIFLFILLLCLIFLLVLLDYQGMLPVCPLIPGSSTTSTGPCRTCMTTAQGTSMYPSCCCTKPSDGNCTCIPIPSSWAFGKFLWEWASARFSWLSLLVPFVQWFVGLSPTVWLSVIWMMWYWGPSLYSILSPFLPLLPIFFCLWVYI", "test": "cell-based or functional assay"}}}
{"binder": "bivalent, soluble H015 (antibody, V domains shown) VH: QVQLVESGGGVAQPGRSLRLSCAASGFSFSRHGMHWVRQAPGKGLEWVAGIWFDGTNDYYTDSVKGRFTISRDNSRSTLYLDINSLRAEDTAVYYCAREDPHLLIATLDLWGLGTLVTVSS VL: DIQVTQSPSSLSAFVGDRVTITCRASQGLTSFINWYQQKPGRAPKLLISSASSLQRGVPSRFTASGSGTHFTLTISSLQPEDFATYYCQQSYGTPALAFGGGTKVDIK", "values": [{"measurement": "IC50, in vitro HDV neutralization in primary human hepatocytes (HDV RNA)", "setting": "[1]", "value": 0.113, "unit": "nM"}, {"measurement": "IC50, in vitro HBV neutralization assay, HepG2-NTCP cells, ayw subtype", "setting": "[2]", "value": 0.0836, "unit": "nM"}]}
